In patent publication US20240287204A1 (published 2024):

Molecular target: T1, human MerTK on cells (human, UniProt Q12866 21-999)
T1 sequence: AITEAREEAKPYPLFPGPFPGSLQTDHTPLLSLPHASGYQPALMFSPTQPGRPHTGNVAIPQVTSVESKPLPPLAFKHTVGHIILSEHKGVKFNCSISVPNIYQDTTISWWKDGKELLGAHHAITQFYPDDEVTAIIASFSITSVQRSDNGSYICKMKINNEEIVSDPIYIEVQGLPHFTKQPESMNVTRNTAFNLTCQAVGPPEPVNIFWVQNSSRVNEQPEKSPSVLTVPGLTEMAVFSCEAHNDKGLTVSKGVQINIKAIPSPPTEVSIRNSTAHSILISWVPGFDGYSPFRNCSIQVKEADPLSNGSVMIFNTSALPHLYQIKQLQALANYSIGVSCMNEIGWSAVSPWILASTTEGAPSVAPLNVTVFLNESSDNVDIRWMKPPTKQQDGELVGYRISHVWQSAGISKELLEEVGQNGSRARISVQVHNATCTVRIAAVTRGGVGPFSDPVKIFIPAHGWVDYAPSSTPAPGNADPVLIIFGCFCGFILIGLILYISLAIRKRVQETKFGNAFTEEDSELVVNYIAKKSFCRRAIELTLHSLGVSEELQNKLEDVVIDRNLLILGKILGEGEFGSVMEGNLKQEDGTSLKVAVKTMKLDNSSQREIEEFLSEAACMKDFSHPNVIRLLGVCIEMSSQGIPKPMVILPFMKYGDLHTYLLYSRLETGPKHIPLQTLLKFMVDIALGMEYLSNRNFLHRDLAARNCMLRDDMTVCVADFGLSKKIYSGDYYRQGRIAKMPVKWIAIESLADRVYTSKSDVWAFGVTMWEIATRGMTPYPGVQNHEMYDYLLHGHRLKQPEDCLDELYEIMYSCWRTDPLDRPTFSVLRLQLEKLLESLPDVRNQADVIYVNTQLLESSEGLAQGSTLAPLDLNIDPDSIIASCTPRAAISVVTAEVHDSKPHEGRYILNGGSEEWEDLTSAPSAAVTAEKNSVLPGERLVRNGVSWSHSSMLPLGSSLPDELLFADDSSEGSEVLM
Experiment: cell-based or functional assay

B1: MTK-22 (antibody, human IgG1, V domains shown)
VH: QVQLQQPGADLVEPGASVKLSCKASGYTFTSYWMHWVKQRPGQGLEWIGEIDPSDSSSNYNQKFKGKATLTVDKSSSTAYMHLNSLTSEDSAVYYCARRYYYGSLYFDNWGQGTTLTVSS
VL: DVVMTQSHKFMSTSVGDRVSITCKASQDVGTAIAWYQQKPGQSPKLLIYWASTRHTGVPDRFTGSRSGTVFTLTISNVQSEDLADYFCQQYTSYPLTFGSGTKLEIK
For B1, the “IC50 of blocking of Gas6-mediated pAKT activity in human M2c macrophages (HTRF)” value was 0.531 nM.
